± gives the uncertainty stated by the source.
Test: self-splicing fitness, log relative to wild type (ln ratio); higher = more splicing; Tetrahymena group I intron in knt gene, E. coli kanamycin selection, DiMSum; sequences stand for … in CUCUCU…GGAGGGAAAAGUUAUCAGGCAUGCACCUGGUAGCUAGUCUUUAAACCAAUAGAUUGCAUCGGUUUAAAAGGCAAGACCGUCAAAUUGCGGGAAAGGGGUCAACAGCCGUUCAGUACCAAGUCUCAGGGGAAACUUUGAGAUGGCCUUGCAAAGGGUAUGGUAAUAAGCUGACGGACAUGGUCCUAACCACGCAGCCAAGUCCUAAGUCAACAGAUCUUCUGUUGAUAUGGAUGCAGUUCACAGACUAAAUGUCGGUCGGGGAAGAUGUAUUCUUCUCAUAAGAUAUAGUCGGACCUCUCCUUAAUGGGAGCUAGCGGAUGAAGUGAUGCAACACUGGAGCCGCUGGGAACUAAUUUGUAUGCGAAAGUAUAUUGAUUAGUUUUGGAGUACUCGUGGUCG
In short: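 The eight P1ex-region nucleotides of an intron in the knt kanamycin-resistance gene on pET-22b(+) were all randomised and the library put into E. coli BL21(DE3). Six replicate transformations were grown overnight at 37°C or 30°C on LB agar with or without 25 μg/mL kanamycin, together with 100 μg/mL carbenicillin, 50 μM IPTG and 0.2% rhamnose. Colonies were pooled and amplicon-sequenced on an Illumina HiSeq 2500. Fitness from DiMSum is the error-weighted combination of wild-type-normalised replicate fold changes, kanamycin over none.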

| Sequence | self-splicing fitness (ln) (30 °C) | self-splicing fitness (ln) (37 °C) |
| --- | --- | --- |
| UUCAAGCAAUAUUACGUUCU | -2.22 ± 0.14 | -2.14 ± 0.17 |
| UUCAAGCAAUAUUACGAAUG | -4.12 ± 0.24 | -2.87 ± 0.27 |
| UUCUAGCAAUAUUACGGUCA | -0.883 ± 0.15 | -0.729 ± 0.11 |
| CCAUAGCAAUAUUACGAACG | -0.593 ± 0.09 | -0.0842 ± 0.11 |
| CGUUAGCAAUAUUACGCUCA | -0.383 ± 0.14 | -0.384 ± 0.15 |
| AAACAGCAAUAUUACGCACA | -0.828 ± 0.085 | 0.269 ± 0.1 |
| UUCAAGCAAUAUUACGCGCC | -0.923 ± 0.17 | -1.38 ± 0.25 |
| ACCCAGCAAUAUUACGGCCG | -2.81 ± 0.15 | -2.6 ± 0.19 |
| CGUGAGCAAUAUUACGCCAC | -1.74 ± 0.35 | – |
| CUCAAGCAAUAUUACGCCUU | – | -3.47 ± 0.39 |
| GCGUAGCAAUAUUACGCGGU | -2.42 ± 0.29 | -2.48 ± 0.3 |
| GAGCAGCAAUAUUACGGCUG | -3.87 ± 0.26 | -2.51 ± 0.28 |
| UCAAAGCAAUAUUACGGCAA | -1.37 ± 0.15 | -0.568 ± 0.12 |
| UCAUAGCAAUAUUACGGGGC | – | -3.14 ± 0.37 |
| UCCUAGCAAUAUUACGAAGG | -2.91 ± 0.15 | -2.1 ± 0.19 |
| UUGAAGCAAUAUUACGAAAG | -1.47 ± 0.082 | -0.794 ± 0.1 |
| UUGAAGCAAUAUUACGUAUA | -1.25 ± 0.11 | -0.207 ± 0.14 |
| CGCGAGCAAUAUUACGUGGG | -3.81 ± 0.29 | -2.54 ± 0.21 |
| CAACAGCAAUAUUACGUGCU | -3.48 ± 0.13 | -2.27 ± 0.12 |
| UAGUAGCAAUAUUACGGCCU | -0.563 ± 0.15 | -0.218 ± 0.24 |
| GAUGAGCAAUAUUACGCACU | -2.71 ± 0.22 | -1.04 ± 0.2 |
| UUGAAGCAAUAUUACGUAAU | -3.46 ± 0.21 | -1.06 ± 0.13 |
| CAUCAGCAAUAUUACGUAAC | -2.81 ± 0.15 | -2.01 ± 0.24 |
| UCGGAGCAAUAUUACGGGUU | -2.86 ± 0.41 | – |
| CCCGAGCAAUAUUACGUCCA | -3.48 ± 0.25 | -2.26 ± 0.24 |

| Sequence | self-splicing fitness (ln) (30 °C) | self-splicing fitness (ln) (37 °C) |
| --- | --- | --- |
| UUCUAGCAAUAUUACGGGCU | -3.73 ± 0.36 | -3.76 ± 0.36 |
| GACGAGCAAUAUUACGCUCA | -1.28 ± 0.15 | -0.493 ± 0.13 |
| CGCAAGCAAUAUUACGACAA | -2.37 ± 0.17 | -1.51 ± 0.16 |
| ACCCAGCAAUAUUACGAGGG | -3.43 ± 0.15 | -2.47 ± 0.17 |
| CUGGAGCAAUAUUACGCAGA | -3.56 ± 0.37 | – |
| UCUAAGCAAUAUUACGAUAU | -3.99 ± 0.4 | -2.61 ± 0.34 |
| AAGCAGCAAUAUUACGACUG | -2.67 ± 0.12 | -1.8 ± 0.14 |
| GUAUAGCAAUAUUACGAAUG | -3 ± 0.24 | -2.32 ± 0.28 |
| GAUCAGCAAUAUUACGAUUA | -0.622 ± 0.086 | 0.0655 ± 0.1 |
| AUAUAGCAAUAUUACGUAAC | -1.11 ± 0.21 | -1.86 ± 0.38 |
| UCCUAGCAAUAUUACGCGCA | -1.31 ± 0.1 | -0.0853 ± 0.097 |
| CACUAGCAAUAUUACGACCG | 0.413 ± 0.1 | 0.573 ± 0.12 |
| CGAAAGCAAUAUUACGAGCA | -2.3 ± 0.25 | -0.869 ± 0.24 |
| GCUAAGCAAUAUUACGCUAC | -2.37 ± 0.15 | -2.44 ± 0.26 |
| ACCUAGCAAUAUUACGACGU | -0.142 ± 0.071 | 0.371 ± 0.084 |
| AACCAGCAAUAUUACGGCAC | -0.615 ± 0.055 | -0.257 ± 0.079 |
| GAACAGCAAUAUUACGUCGG | -2.64 ± 0.16 | -1.85 ± 0.28 |
| AACUAGCAAUAUUACGUCAC | -2.87 ± 0.18 | – |
| CUAAAGCAAUAUUACGACGC | – | -1.39 ± 0.45 |
| GAAUAGCAAUAUUACGGCAU | -0.386 ± 0.065 | -0.0278 ± 0.083 |
| AGGAAGCAAUAUUACGGGAU | -2.75 ± 0.19 | -2.06 ± 0.18 |
| UAUCAGCAAUAUUACGUUAA | -0.97 ± 0.093 | -0.0683 ± 0.11 |
| ACAAAGCAAUAUUACGUGUU | -3.59 ± 0.17 | -2.61 ± 0.16 |
| AGGAAGCAAUAUUACGGGAC | -3.5 ± 0.46 | -1.67 ± 0.23 |
| CAAGAGCAAUAUUACGAUGC | -2.54 ± 0.32 | -2.31 ± 0.39 |

| Sequence | self-splicing fitness (ln) (30 °C) | self-splicing fitness (ln) (37 °C) |
| --- | --- | --- |
| GGGGAGCAAUAUUACGACAC | -0.721 ± 0.14 | -0.843 ± 0.24 |
| AGGUAGCAAUAUUACGGAGC | -4.047 ± 0.034 | -2.5 ± 0.04 |
| CAAUAGCAAUAUUACGACAU | -3.694 ± 0.024 | -2.38 ± 0.037 |
| GUGCAGCAAUAUUACGUACA | – | -2.03 ± 0.34 |
| ACCGAGCAAUAUUACGCUGC | -2.73 ± 0.16 | -2.5 ± 0.23 |
| AAAGAGCAAUAUUACGCGCU | -2.96 ± 0.4 | – |
| AAGCAGCAAUAUUACGCUAU | -2.17 ± 0.14 | -0.814 ± 0.13 |
| AUAGAGCAAUAUUACGCCAG | -2.27 ± 0.21 | -1.14 ± 0.27 |
| GUUUAGCAAUAUUACGCGUA | -0.947 ± 0.14 | -0.606 ± 0.15 |
| CUUGAGCAAUAUUACGAUUA | -3.25 ± 0.26 | -2.36 ± 0.35 |
| CUGUAGCAAUAUUACGGACC | -2.03 ± 0.47 | – |
| UACCAGCAAUAUUACGUAUA | -0.615 ± 0.058 | -0.199 ± 0.072 |
| AAUGAGCAAUAUUACGAUAU | -3.25 ± 0.25 | -0.861 ± 0.22 |
| UCGCAGCAAUAUUACGCGGA | – | -2.29 ± 0.25 |
| UGCCAGCAAUAUUACGUUAA | -2.48 ± 0.15 | -0.729 ± 0.095 |
| AUCCAGCAAUAUUACGACGC | -1.16 ± 0.12 | -0.49 ± 0.15 |
| UCUGAGCAAUAUUACGGAGU | -2.86 ± 0.19 | -2.57 ± 0.17 |
| AUCCAGCAAUAUUACGACCC | -1.24 ± 0.071 | -0.202 ± 0.089 |
| AGAUAGCAAUAUUACGUGUG | -2.48 ± 0.097 | -0.626 ± 0.098 |
| AUGUAGCAAUAUUACGGGGA | -2.26 ± 0.21 | -2.48 ± 0.21 |
| AUCAAGCAAUAUUACGGACC | -1.47 ± 0.12 | -1.22 ± 0.086 |
| CUGGAGCAAUAUUACGUUGA | -1.67 ± 0.34 | -2.26 ± 0.49 |
| CAGAAGCAAUAUUACGCACG | -0.596 ± 0.072 | -0.261 ± 0.08 |
| CUCUAGCAAUAUUACGUGGU | -5.48 ± 0.41 | -3.5 ± 0.22 |
| UGCCAGCAAUAUUACGUUUU | -3.79 ± 0.18 | -2.56 ± 0.2 |

| Sequence | self-splicing fitness (ln) (30 °C) | self-splicing fitness (ln) (37 °C) |
| --- | --- | --- |
| AAACAGCAAUAUUACGCGUG | -1.42 ± 0.052 | -0.0443 ± 0.066 |
| UACAAGCAAUAUUACGCAAC | – | -2.36 ± 0.3 |
| AUAAAGCAAUAUUACGCUUA | -1.27 ± 0.1 | 0.137 ± 0.12 |
| AGGCAGCAAUAUUACGACUG | -1.99 ± 0.14 | -2.18 ± 0.18 |
| GUGUAGCAAUAUUACGGGCA | -0.665 ± 0.18 | -1.29 ± 0.19 |
| AACAAGCAAUAUUACGACAC | -1.66 ± 0.085 | -0.431 ± 0.097 |
| CGACAGCAAUAUUACGCCCG | 0.138 ± 0.24 | – |
| AAAAAGCAAUAUUACGGAAU | -2.25 ± 0.11 | -1.36 ± 0.13 |
| CUUCAGCAAUAUUACGUAGA | -3.3 ± 0.19 | -2.92 ± 0.27 |
| UUGGAGCAAUAUUACGUCAU | -3.84 ± 0.47 | -1.45 ± 0.34 |
| UGUCAGCAAUAUUACGACCG | -0.0146 ± 0.18 | 0.122 ± 0.25 |
| CGUAAGCAAUAUUACGCCGA | -3.5 ± 0.25 | -1.44 ± 0.14 |
| AUAGAGCAAUAUUACGUCUA | -0.2 ± 0.076 | 0.816 ± 0.11 |
| UGAUAGCAAUAUUACGAAGA | -2.56 ± 0.26 | -1.97 ± 0.22 |
| AUACAGCAAUAUUACGCACG | -2.13 ± 0.12 | -0.772 ± 0.15 |
| CGCGAGCAAUAUUACGAAGC | – | -1.75 ± 0.45 |
| AUUCAGCAAUAUUACGAUUG | -1.88 ± 0.16 | -1.05 ± 0.2 |
| CACCAGCAAUAUUACGCAGC | -3.44 ± 0.16 | -1.77 ± 0.12 |
| UCACAGCAAUAUUACGGCGU | -3.04 ± 0.19 | -2.93 ± 0.2 |
| AAAGAGCAAUAUUACGGCGU | -1.87 ± 0.098 | 0.269 ± 0.094 |
| UGAGAGCAAUAUUACGCAUC | -4.1 ± 0.46 | -1.8 ± 0.19 |
| CCGUAGCAAUAUUACGCACG | -2.02 ± 0.096 | -1.53 ± 0.13 |
| CCUUAGCAAUAUUACGUCAC | -3.46 ± 0.26 | -2.21 ± 0.29 |
| UCACAGCAAUAUUACGGUAA | -1 ± 0.084 | -0.187 ± 0.088 |

— the supplement of paper PMC7877785
